Source: patent US20120107320A1 (UNIVERSITY COURT OF THE UNIVERSITY OF ABERDEEN, published 2012)

Target: T1, human soluble CTLA-4 (sCTLA-4), natural soluble form (human, UniProt P16410-5 36-174, limits assumed)
T1 construct: also called natural soluble CTLA-4; soluble form of cytotoxic T-lymphocyte antigen 4
T1 sequence (looked up): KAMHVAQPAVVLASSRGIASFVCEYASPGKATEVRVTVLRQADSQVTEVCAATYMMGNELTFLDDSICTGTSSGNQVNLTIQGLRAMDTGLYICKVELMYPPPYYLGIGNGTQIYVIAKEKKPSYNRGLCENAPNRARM
Experiment: sandwich ELISA, capture with pan-specific mAb BNI3, detection with biotinylated JMW-3B3
From the text: FIG. 7. Anti-sCTLA-4 JMW-3B3 distinguishes, in sera and culture supernatant, true natural soluble CTLA-4 from extracellular membrane-bound CTLA-4 (mCTLA-4). The extracellular portion of mCTLA-4 is encoded by exon 2 and is identical in sCTLA-4, mCTLA-4 and the recombinant soluble form of CTLA-4, CTLA4-Ig. […] Pan-specific anti-CTLA-4 mAb (clone BNI3) was used as the capture antibody.

binding result: binds
B1: monoclonal anti-sCTLA-4 antibody JMW-3B3 (antibody, mouse IgG1, V domains shown)
VH: EVKLVNSGGGLVQPGNSLRLSCATSGFTFTDFYMSWVRQPPGKALEWLGFVRNRANGYTTEYSVSVKGRFIISRDNFQSTLFLQMNTLRAEDSGTYYCVRGPGDTADYTMDYWGQGTSVTVSS
VL: QAVVTQESAFTTSPGGTVILTCRSSTGAVTTNNYANWVQEKPDHLFTGLIGGTSNRAPGVPVRFSGSLIGDKAALTITGAQTEDDGMYFCALWYTTHFVFGGGTKVT
notes: It was biotinylated for detection in the sandwich ELISAs; also called mAb JMW-3B3; anti-sCTLA-4 mAb
